Experimental data from paper PMC10086585 (2023).

Molecular target: human recombinant netrin‐1, on AHC biosensors (human, UniProt O95631 25-604)
Test: BLI

B1: fibronectin leucine‐rich transmembrane protein (FLRT1), recombinant human (natural protein)
chain: IDSTTCPSVCRCDNGFIYCNDRGLTSIPADIPDDATTLYLQNNQINNAGIPQDLKTKVNVQVIYLYENDLDEFPINLPRSLRELHLQDNNVRTIARDSLARIPLLEKLHLDDNSVSTVSIEEDAFADSKQLKLLFLSRNHLSSIPSGLPHTLEELRLDDNRISTIPLHAFKGLNSLRRLVLDGNLLANQRIADDTFSRLQNLTELSLVRNSLAAPPLNLPSAHLQKLYLQDNAISHIPYNTLAKMRELERLDLSNNNLTTLPRGLFDDLGNLAQLLLRNNPWFCGCNLMWLRDWVKARAAVVNVRGLMCQGPEKVRGMAIKDITSEMDECFETGPQGGVANAAAKTTASNHASATTPQGSLFTLKAKRPGLRLPDSNIDYPMATGDGAKTLAIHVKALTADSIRITWKATLPASSFRLSWLRLGHSPAVGSITETLVQGDKTEYLLTALEPKSTYIICMVTMETSNAYVADETPVCAKAETADSYGPTTTLNQEQNAGPMASLP
Kd: 20.7 nM
